Reference: paper PMC3173232

How the values were obtained:
XLF(1-224);XRCC4(1-140) = XLF(1-224);XRCC4(1-140) (Homo sapiens;Homo sapiens, UniProt Q9H9Q4;Q13426 1-224;1-140, |); assay: SAXS titration
XLF FL;XRCC4(1-140) = XLF FL;XRCC4(1-140) (Homo sapiens;Homo sapiens, UniProt Q9H9Q4;Q13426 1-299;1-140, |); assay: SAXS titration
[1] = molecular target: Ku70/80 heterodimer;XLF FL;XRCC4(1-140) (Homo sapiens (HeLa);Homo sapiens;Homo …, UniProt P12956;P13010;Q9H9Q4;Q13426 2-609;2-732;1-299;1-140, ||); assay: SEC co-elution and SAXS
XRCC4 FL;XLF(1-248) = XRCC4 FL;XLF(1-248) (Homo sapiens;Homo sapiens, UniProt Q13426;Q9H9Q4 1-336;1-248, |); assay: tryptophan fluorescence quenching
XLF(1-248) = XLF(1-248) (Homo sapiens, UniProt Q9H9Q4 1-248); assay: tryptophan fluorescence quenching
XLF FL = XLF FL (Homo sapiens, UniProt Q9H9Q4 1-299); assay: tryptophan fluorescence quenching
XRCC4 FL = XRCC4 FL (Homo sapiens, UniProt Q13426 1-336); assay: tryptophan fluorescence quenching
Chain of XRCC4 FL (Q13426 whole entry): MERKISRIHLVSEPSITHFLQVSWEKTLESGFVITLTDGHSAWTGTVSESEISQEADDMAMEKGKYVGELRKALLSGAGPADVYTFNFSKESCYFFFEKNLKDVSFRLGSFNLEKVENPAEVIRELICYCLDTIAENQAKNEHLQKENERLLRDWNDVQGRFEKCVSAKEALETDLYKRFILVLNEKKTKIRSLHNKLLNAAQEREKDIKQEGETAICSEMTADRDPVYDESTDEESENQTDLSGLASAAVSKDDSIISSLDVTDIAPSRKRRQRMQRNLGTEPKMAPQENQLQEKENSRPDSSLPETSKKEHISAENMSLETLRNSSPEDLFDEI

Chain of XLF(1-224);XRCC4(1-140) (Q9H9Q4 1-224, chain 1 of 2): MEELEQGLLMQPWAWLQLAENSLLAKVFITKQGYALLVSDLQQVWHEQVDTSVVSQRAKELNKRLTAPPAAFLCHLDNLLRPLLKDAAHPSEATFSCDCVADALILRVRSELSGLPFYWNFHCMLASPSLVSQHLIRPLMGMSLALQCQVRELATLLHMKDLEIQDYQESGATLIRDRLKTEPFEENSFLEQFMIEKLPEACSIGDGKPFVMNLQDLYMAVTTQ
Chain of XLF(1-224);XRCC4(1-140) (Q13426 1-140, chain 2 of 2): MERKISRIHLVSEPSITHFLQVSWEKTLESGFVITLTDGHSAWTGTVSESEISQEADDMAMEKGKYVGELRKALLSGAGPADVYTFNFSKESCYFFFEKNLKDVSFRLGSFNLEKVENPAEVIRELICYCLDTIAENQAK
Chain of XLF FL;XRCC4(1-140) (Q9H9Q4 whole entry, chain 1 of 2): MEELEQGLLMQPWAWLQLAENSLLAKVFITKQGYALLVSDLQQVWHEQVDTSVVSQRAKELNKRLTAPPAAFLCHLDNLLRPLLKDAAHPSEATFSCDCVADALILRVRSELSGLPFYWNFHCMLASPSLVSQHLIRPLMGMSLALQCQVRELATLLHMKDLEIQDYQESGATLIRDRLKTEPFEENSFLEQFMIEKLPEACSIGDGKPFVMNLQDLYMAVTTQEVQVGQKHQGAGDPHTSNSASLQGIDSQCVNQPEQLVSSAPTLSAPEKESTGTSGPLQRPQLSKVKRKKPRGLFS
Chain of XLF FL;XRCC4(1-140) (Q13426 1-140, chain 2 of 2): as the sequence (Q13426 1-140, chain 2 of 2) above
Chain of XLF FL (Q9H9Q4 whole entry): as the sequence (Q9H9Q4 whole entry, chain 1 of 2) above
Chain of XRCC4 FL;XLF(1-248) (Q13426 whole entry, chain 1 of 2): as the sequence (Q13426 whole entry) above
Chain of XRCC4 FL;XLF(1-248) (Q9H9Q4 1-248, chain 2 of 2): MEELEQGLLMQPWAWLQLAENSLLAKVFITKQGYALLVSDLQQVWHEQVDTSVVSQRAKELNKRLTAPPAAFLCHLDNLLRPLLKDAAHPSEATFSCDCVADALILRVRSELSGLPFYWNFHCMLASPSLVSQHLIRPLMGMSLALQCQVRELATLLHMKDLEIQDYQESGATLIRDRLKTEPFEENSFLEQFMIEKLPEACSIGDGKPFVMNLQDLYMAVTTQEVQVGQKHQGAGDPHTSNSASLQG
Chain of Ku70/80 heterodimer;XLF FL;XRCC4(1-140) (P12956 2-609, chain 1 of 4): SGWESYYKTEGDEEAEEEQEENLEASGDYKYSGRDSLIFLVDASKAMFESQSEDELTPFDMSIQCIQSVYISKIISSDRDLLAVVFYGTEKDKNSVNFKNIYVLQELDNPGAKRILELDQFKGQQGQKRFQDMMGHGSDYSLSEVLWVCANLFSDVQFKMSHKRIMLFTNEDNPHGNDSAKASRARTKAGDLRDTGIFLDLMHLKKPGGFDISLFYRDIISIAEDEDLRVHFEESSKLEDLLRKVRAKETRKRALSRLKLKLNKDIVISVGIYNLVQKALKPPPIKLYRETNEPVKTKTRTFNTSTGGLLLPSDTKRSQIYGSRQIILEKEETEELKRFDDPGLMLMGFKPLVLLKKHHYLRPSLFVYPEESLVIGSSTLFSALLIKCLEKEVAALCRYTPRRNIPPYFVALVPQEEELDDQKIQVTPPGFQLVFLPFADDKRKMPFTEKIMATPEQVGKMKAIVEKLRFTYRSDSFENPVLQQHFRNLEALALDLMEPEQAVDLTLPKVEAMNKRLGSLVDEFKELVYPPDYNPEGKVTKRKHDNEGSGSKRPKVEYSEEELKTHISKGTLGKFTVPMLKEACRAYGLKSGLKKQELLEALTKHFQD
Chain of Ku70/80 heterodimer;XLF FL;XRCC4(1-140) (P13010 2-732, chain 2 of 4): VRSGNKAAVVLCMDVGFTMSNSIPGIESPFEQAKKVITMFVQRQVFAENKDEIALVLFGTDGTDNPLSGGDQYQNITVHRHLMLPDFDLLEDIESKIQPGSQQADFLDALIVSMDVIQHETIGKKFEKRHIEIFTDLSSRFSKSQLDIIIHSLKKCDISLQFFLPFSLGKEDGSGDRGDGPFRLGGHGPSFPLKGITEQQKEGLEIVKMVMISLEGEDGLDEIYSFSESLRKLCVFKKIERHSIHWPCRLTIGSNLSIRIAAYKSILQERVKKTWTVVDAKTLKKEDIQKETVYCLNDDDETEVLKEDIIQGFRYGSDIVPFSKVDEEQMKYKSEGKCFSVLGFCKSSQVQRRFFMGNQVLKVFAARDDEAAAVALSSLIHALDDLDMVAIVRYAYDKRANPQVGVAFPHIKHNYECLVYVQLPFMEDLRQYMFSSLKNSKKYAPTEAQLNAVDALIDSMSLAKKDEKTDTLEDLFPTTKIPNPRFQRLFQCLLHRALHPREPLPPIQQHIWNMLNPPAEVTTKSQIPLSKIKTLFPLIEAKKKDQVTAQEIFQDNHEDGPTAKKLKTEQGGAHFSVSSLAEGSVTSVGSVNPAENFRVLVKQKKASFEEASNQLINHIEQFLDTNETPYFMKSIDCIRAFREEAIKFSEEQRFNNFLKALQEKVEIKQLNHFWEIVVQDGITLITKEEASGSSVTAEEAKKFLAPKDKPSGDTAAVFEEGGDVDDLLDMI
Chain of Ku70/80 heterodimer;XLF FL;XRCC4(1-140) (Q9H9Q4 whole entry, chain 3 of 4): as the sequence (Q9H9Q4 whole entry, chain 1 of 2) above
Chain of Ku70/80 heterodimer;XLF FL;XRCC4(1-140) (Q13426 1-140, chain 4 of 4): as the sequence (Q13426 1-140, chain 2 of 2) above
Chain of XLF(1-248) (Q9H9Q4 1-248): as the sequence (Q9H9Q4 1-248, chain 2 of 2) above

B1: 40-bp DNA (dsDNA)
DNA 1: GGATACACAACAGACCGCAACACTCAGATTACTTTTCGCC
DNA 2: GGCGAAAAGTAATCTGAGTGTTGCGGTCTGTTGTGTATCC
XLF(1-224);XRCC4(1-140)
  binding result: binds
XLF FL;XRCC4(1-140)
  binding result: binds
[1]
  binding result: binds
XRCC4 FL;XLF(1-248)
  Kd: 700 ± 50 nM
XLF(1-248)
  Kd: 2900 ± 200 nM
XLF FL
  Kd: 1600 ± 100 nM
XRCC4 FL
  Kd: 950 ± 50 nM
